In the DeepSol protein solubility set:

Assay: soluble on expression in E. coli; label from the status in PepcDB or PDB records

MSLSTFDYDLIIIGSGPSGRAAAIQAGKLKRRVLVIDRKDRLGGVSVHTGTIPSKTLRETVLNLSGWRERSFYGRSYRVKDRISAEDLKARLHMTLDYEVDVLEHQFNRNHIDTLNGLARFVGPHEIEVATEAGDTTRLTAAKFLIATGTKTYRPDYVPFNGKTVVDGDDFLEMERIPRSLAVIGAGVIGVEYASMFSALDVRVTLIEPRETFLDFIDRTLIQEFTHQIRENGVDLRLGSAVEKIEDTGSHIEISLANGRHIRAEMLLFAAGRMGATSALNLDAVGLETDHRNRITVDRKTYQTSVPHIYATGDVIGHPSLASTSMQQGRVAACHALETPTLPESPWFPYGIYSVPEMSTCGMSEEELQERGIPYEVGVARFRETSRGHIMGLEHGMLKMLLSLKTRRVLGVQIVGEGATELIHIGQAVMNLKGTVDYFVQNTFNYPTLAEAYRTAGLDAFNRMPIPEEFKVKEGHHHHHH
soluble on expression in E. coli: soluble

MKKPNHSGSGQIRIIGGQWRGRKLPVPDSPGLRPTTDRVRETLFNWLAPVIVDAQCLDCFAGSGALGLEALSRYAAGATLIEMDRAVSQQLIKNLATLKAGNARVVNSNAMSFLAQKGTPHNIVFVDPPFRRGLLEETINLLEDNGWLADEALIYVESEVENGLPTVPANWSLHREKVAGQVAYRLYQREAQGESDAD
soluble on expression in E. coli: soluble

MNYMELYDVDEFWKFQMKVGLVKKAEKIKRTKKLIKLIVDFGNEERTIVTGIADQIPPEELEGKKFIFVVNLKPKKFSGVESQGMLILAETEDGKVYLIPVPEEVPVGARVW
soluble on expression in E. coli: soluble

MGSDKIHHHHHHMNFCRILLKPLKKNEALSGYSAEGLHYLTDNKHFNPELPFSRQEFITVKPQKQQGMSISGFQPKLQLIIKDEHFDSVNQQGNYILKPSPEEYPFLAENEHATMRIMKELGFDVPENGLVSFAGEQNHKEFAFVITRFDRDKQQKPMHQEQLDGAMNIRDKYGKIGADNEQYVSYEQIAKFILQHTENHLAQQREIFRRIIYAYLLGNNDLHLRNFSFIYPKNSHPKLAPIYDFVSVSPYPEIFNSTLLALPLLAREEGNATLAKGFNTQYGEYIGDDFVEFGENIGLNKNVIIQKLIPEIIQEKEKVEQIYSQSFMPQPHIDCVLKTYRKRLALLNLLNEPEL
soluble on expression in E. coli: not soluble

MRDLFDEVAGKSPLDPNEAVRRTSRAQLPKRFYTEAGVAEENGGFAVRLDGRAVKTPSRNALAAPDRALAEAIAAEWQAQGETIDPSTMPLTRLANSVIDGVAGRVEAVTDDIAKYFGSDLLFYRAEHPEELIAREGAHWDPVLFWAKDALGAHFILAQGIVHVGQPETALAAARAALPADPWLLGALHVVTTITGSALLALALAHGRLEADQVWAAAHVDEDWNIEQWGLDEEAAARRAAKQAEFAAAAQVIAALGSRRSAAALEHHHHHH
soluble on expression in E. coli: not soluble

MGSDKIHHHHHHMKKKSMIVLTSAFVLLSAFSCGGGGKATGTNEQSEKVVVNVPQFDADSAYLYVKNQVDFGPRVPNTKEHVACGNYLAGKLEAFGAKVTNQYADLIAYDGTLLKARNIIGSYKPESKKRIALFAHWDTRPWADNDADEKNHHTPILGANDGASGVGALLEIARLVNQQQPELGIDIIFLDAEDYGTPQFYEGKHKEEAWCLGSQYWSRNPHVQGYNARFGILLDMVGGENSVFLKEGYSEEFAPDINKKVWKAAKKAGYGKTFIDERGDTITDDHLFINRLARIKTIDIIPNDPETGFPPTWHTIHDNMDHIDKNTLKAVGQTVLEVIYNEK
soluble on expression in E. coli: not soluble

FCLTLRRRYTMGHHHHHHHHHHSSGHIEGRHMKLEQTLTLSPNLIGFNSNEGEKLLLTSRSREDFFPLSMQFVTQVNQAYCGVASIIMVLNSLGINAPETAQYSPYRVFTQDNFFSNEKTKAVIAPEVVARQGMTLDELGRLIASYGVKVKVNHASDTNIEDFRKQVAENLKQDGNFVIVNYLRKEIGQERGGHISPLAAYNEQTDRFLIMDVSRYKYPPVWVKTTDLWKAMNTVDSVSQKTRGFVFVSKTQDD
soluble on expression in E. coli: soluble

MSLNAIARQEPFDLNDPALRARAVAAARGDAPFDMLITGGRLLDAVTGLIREADIGLVGALIASVHAPASRTDAVEIIDATGGILTPGLIDMHMHVESSMVTPAEYASAVLPHGVTTVVWDPHEFGNVQGLDGVRWAIEAARTLPLRMILLAPSCVPSAPGLELAGADFDAAVIAEMLRSPAVGGVAEVMNMRGVIDGDPRMSAIVNSGLASGKLVCGHARGLTGADLNAFMAAGVTSDHELTSGADLAAKLSAGLTIELRGSHDHLLQEFVEVLNGLGHLPATVTLCTDDVFPDELYQSGGLDEVARRLVRYGMKPEWALRAATFNAAQRLKRSDLGLVASGRRADLVLFEDLTELRARLVISDGRIVARNGSMEAAVQPLDTAPLINSTKLPPLTESDFRVPAKGARVRIATIDRPRFTQWGEAETEIRDGFVVPPAGSAMIAVAHRHGKAGGTPRIGFLTGWGEWRGAFCTTVSHDSHNLTVFGGDARDMALAANAVIKAGGGLAVAKDGAIQAILPLPLSGLVTDASLKDTASAFSDIRKAMDKIVDWKPPYRVFKACFGATLACNAGPHQTDRGIADVTTGKVLESPVLEIEGHHHHHH
soluble on expression in E. coli: soluble

MHMSFDGMFTYGMTHELNEKIMGGRITKIHQPYKHDVIFHIRAKGKNQKLLLSAHPSYSRVHITAQAYENPSEPPMFCMLLRKHIEGGFIEKIEQAGLDRIMIFHIKSRNEIGDETVRKLYVEIMGRHSNIILTDAAENVIIDGLKHLSPSMNSYRTVLPGQDYKLPPAQDKISPLEASEDDILRHLSFQEGRLDKQIVDHFSGVSPLFAKEAVHRAGLANKVTLPKALLALFAEVKEHRFIPNITTVNGKEYFYLLELTHLKGEARRFDSLSELLDRFYFGKAERDRVKQQAQDLERFVVNERKKNANKIKKLEKTLEYSENAKEFQLYGELLTANLYMLKKGDKQAEVINYYDEESPTITIPLNPNKTPSENAQAYFTKYQKAKNSVAVVEEQIRLAQEEIEYFDQLIQQLSSASPRDISEIREELVEGKYLRPKQQKGQKKQKP
soluble on expression in E. coli: soluble

MEYHMGNTMTKAIYDKFKSATPYGNKVATGPTPTEAVDITVSVGGFKVGDQNYPINPKITFTNNTGQAIPGGTEFQFDIPVSAPDNAKDQSGGGLKVIASGHTRANNIGGLDGVMHRVSFSLPAWKDLPAGGTYELDMVYYLPISGPANYSVISGGKEFAFKFEQPDLPIGDLNALEHHHHHH
soluble on expression in E. coli: soluble

MGHHHHHHSHKVENFEAAVHFYGKAIELNPANAVYFCNRAAAYSKLGNYAGAVQDCERAICIDPAYSKAYGRMGLALSSLNKHVEAVAYYKKALELDPDNETYKSNLKIAELKLREAPSPTGGVGSFDIAGLLNNPGFMSMASNLMNNPQIQQLMSGMISGGNNPLGTPGTSPSQNDLASLIQAGQQFAQQMQQQNPELIEQLRSQIRSRTP
soluble on expression in E. coli: not soluble

MSCSHYEERVEKVELPQLKVNGMAIGEDLLARELQYHPADSYALALEAACRALIVRQLLLQRADALGIEARCEDGETPEEARIRQLLEEEVQVPEADEDACRTWYAANPGRLLGPWRLQLRHVLLACAPDDLEGRETARKQAAELLDELRGHPERFVDLARRFSACPSKESGGDLGWIEPGQTVPEFEKRLLRRAPGLLEHPLESRYGLHVVELLAREGGEPLDFDAARAQIAAHLQAQVLQRAVGQYIGVLAGD
soluble on expression in E. coli: not soluble

MEWTEEIVSKGFALYVALSKKGFITSKEDEYFQWYEERGVQDFIRKVIEPTGKVMIFLDEQDGVIQMVPEVENETMSYTNDDLKKELGFKDNKEIHLFYFILFILIAELEQPYDTESADRMYLPMDELLDKMNGYIEQYERLGEEKLEELSDEYDVDVAGIVEAWGRMADFKEGATSHIRTKDNRRMYIEKTLKFLEKEKLIRIREHTNISVTNKMKNIISHYYHNVENKSKIHDLLLVTREGTVGEEEE
soluble on expression in E. coli: not soluble

MPILKHLLLKNRKQPMQKKFVATAVGYVPWGDGAAEYFYNLYEYEDGTRECEKFDGGQYYKIPENADFSTKAQVKAWIYGGAVPKSVLSYEALIDEMNENIKQRSQAGGEIDRQLEEALDKQLGRYKNNKKIKNYRKQLNLKHDSSALFLDGEEIYSVTACRINQKI
soluble on expression in E. coli: not soluble

MIEVIFLGTGGIKPTPERNVPSIAIKIGGEIILFDVGEGTLRQMEIARISPMKIKRVFITHFHGDHYLGLPALIQTMSLWKRKDPLHIYGPEGSSTFLQNLLNSGYFAPSFDILVHEISGKSRLKFKEYEVWAFEVSHGVPALGYVFKEKDKRGNFNLKKIKELGLEPGPWMKELERQKIIEINGKIVRLLEVTGPKKRGAKVVYSGDTEPCDEVIEFSRRGTLLIHEATYVNEEDRKDSYHTTIEEACEIWKKSKARKLVLFHRSPRYSFKEYKEKALSICPQAIIPRDFDRIAIEGAGDVLFKIR
soluble on expression in E. coli: soluble

MAMDTIAFAYMGGKEYEWLFFEVYDRVRRFYRDVRLPINIVYAGKIILPPGTLIRVETASGFVNMYSFEAVVEALYGKLVEMRDDVNDDSITKIFGITTFPIGSRDRYFDIYKKYLGIQVNVGDYHVLALSIKPFFTENKYLFIERVFKGVLHEIGHLYGLSHCHEDCVMNPPKDIKDWDLRTPTYCNTCLRKLKNKEELMPKLQLLEHHHHHH
soluble on expression in E. coli: not soluble

MSLGIKAVIFDLDGVIVSTDEYHYRAWKAMADEEGIYFDKRINERLRGVGRMESLEIILEKAKKTYNTKEKIQMTERKNFIYRELLNELTPKHILKGVMNVLETLRAKNIKIAIGSSSKNTSIILEKIKLDKYFDAVADGREIKKSKPNPEVFLLAAKKLKVSPEECLIVEDADAGVEAAIAGGMKVLAVGYASNNIKANYKFKDLSCVDIKEVICKEGHHHHHH
soluble on expression in E. coli: soluble

MKDDIKRRIDLAAGRKRSQLVLKNAQILNVFSHEIISGDIAIDQGKIVGIGNYNGLENIDLEGKVVVPGLIDGHVHMESAMVTPGQFARAIVPRGTTTIVADPHEIANVCGIPGIEYMLKASEGMPLNVYMMLPSCVPATSFENAGANLKAKDLAPLINHEKVLGLGELMDYPGVIAGEESIIDKIMIAEGKMIDGHGPDIKEEALNAYVAAGVRTEHECSTVEEMINRLRLGMYILIREGSAARNLKTLVRGITPENMRRCLFCTDDKHPEDILEAGHIDHNVRVAIKEGLDPISAVKMATINAAECYGLKDLGAIAPGYRADLVVLDNLETFHVTKVFKDGKLVAQDGKAFFEAQSTEDHTVTQTVNAKELTPEDLVLSLETDIVNVIKLLPHSLVTQRVSRKVEVKEGTFRYHEDLDILKLAVIERHKRTGNIGLGLVEDFRLKGGAIASTVAHDSHNIIVIGDNDEDMLLAVNELNTVGGGITICSKGEILQTLSLPIAGLMAQGTMEEVNEQLKQMLEIAYKKLGINEQIDPFMTLSFLALPVIPELKLTDLGLFDVKNFRFISLNR
soluble on expression in E. coli: not soluble

MSAPVQCPIHPDVHLIEDHRAGDLVCPACGLVVGDRLVDVGTEWRSFSNERSGNDPSRVGAPENPLLSGGDLSTTIAVGFGGSDSDNSLANAQRKSMNNTDRQMTAAMSLIREMSERIHLPRNIQDSASRIFKDVLESKALRGKNNEAQAAACLYIACRKDGVPRTFKEICAVSRVSKKEIGRCFKIIVRSLETNLEQITSADFMSRFCGNLSLPNSIQAAATRIAKCAVDMDLVAGRTPISIAAAAIYMASQASAEKRSAKEIGDVAGAAEITVRQTYKLLYPKALELFPKDFRFVTPIDALPNS
soluble on expression in E. coli: not soluble

MGSDKIHHHHHHSRSTQGVRSLGFYNRHTGERGQGSYWIDGDYQTNTLNDFNHLLRDHRQNETAPMDKRLFDLLFSLKQTLQVDEDFHVISGYRSPKTNQMLANRSSAVAKKSYHMKGMAMDIALPDVNLKDLRDAAISLKLGGVGYYPSSGFVHVDTGPIRTW
soluble on expression in E. coli: not soluble
